# Test results reported in US11266616B2, “Compositions and methods for inhibiting kinase activity” (BRANDEIS UNIVERSITY, priority 2016, dated 2022).
# Entries after “also recorded” stand apart in the source; their conditions may differ.
# T1: dephosphorylated Aurora A kinase (Homo sapiens, UniProt O14965)
# T1 construct: Codon-optimized Aurora A^122-403 in pET28a and untagged λPP in T7-7 plasmid were co-transformed in BL21(DE3) cells; inferred from pET28a and the NiNTA column) (cleaved yes); made in house; host or cells: E. coli BL21(DE3), co-expressed with lambda protein phosphatase
# T1 sequence (O14965 122-403): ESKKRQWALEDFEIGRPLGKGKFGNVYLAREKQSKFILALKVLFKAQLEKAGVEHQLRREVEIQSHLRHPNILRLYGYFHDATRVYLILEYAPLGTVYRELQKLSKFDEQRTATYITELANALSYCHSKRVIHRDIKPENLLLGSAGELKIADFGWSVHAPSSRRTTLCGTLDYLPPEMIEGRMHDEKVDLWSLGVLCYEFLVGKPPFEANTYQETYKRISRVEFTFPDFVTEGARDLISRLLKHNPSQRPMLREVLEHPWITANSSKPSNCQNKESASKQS
# T2: Aurora A kinase (Homo sapiens, UniProt O14965)
# T2 construct: Codon-optimized Aurora A^122-403 in pET28a and untagged λPP in T7-7 plasmid were co-transformed in BL21(DE3) cells; inferred from pET28a and the NiNTA column) (cleaved yes); made in house; host or cells: E. coli BL21(DE3)
# T2 sequence (O14965 122-403): T1 sequence (O14965 122-403)
# B1: Mb44: monobody binding allosteric site of Aurora A kinase, SEQ ID NO: 1; inhibitor (protein, listed as Homo sapiens)
# chain: GSVSSVPTKLEVVAATPTSLLISWDAPAVTVDFYVITYGETGGYSYPWQEFEVPGSKSTATISGLKPGVDYTITVYADYGQYFYSPISINYRT
# B2: Mb56: monobody binding allosteric site of Aurora A kinase, SEQ ID NO: 3; inhibitor (protein, listed as Homo sapiens)
# chain: GSVSSVPTKLEVVAATPTSLLISWDAMSDWYYWVDYYRITYGETGGNSPVQEFTVPGSYSTATISGLKPGVDYTITVYASDDVWGDYSPISINYRT
# B3: Mb60: monobody binding allosteric site of Aurora A kinase, SEQ ID NO: 4; inhibitor (protein, listed as Homo sapiens)
# chain: GSVSSVPTKLEVVAATPTSLLISWDAPAVTVVHYVITYGETGGNSPVQEFTVPGSKSTATISGLKPGVDYTITVYAIDFYWGSYSPISINYRT
# B4: sGFP-Mb60: fusion polypeptide of supercharged GFP and inhibiting monobody Mb60 (aka Mb2) (protein)
# chain: B3 chain
# modifications: left off: large carriers
# B5: Mb54: monobody binding allosteric site (PIF pocket) of Aurora A kinase, SEQ ID NO: 11; activator (protein, listed as Homo sapiens)
# chain: GSVSSVPTKLEVVAATPTSLLISWDAQTYQMYDYVSYYRITYGETGGNSPVQEFTVPGYYSTATISGLKPGVDYTITVYAEGYYSSYSPISINYRT
# B6: sGFP-Mb54: fusion polypeptide of supercharged GFP and activating monobody Mb54 (aka Mb1) (protein)
# chain: B5 chain
# modifications: left off: large carriers
# B7: Mb6: monobody binding allosteric site of Aurora A kinase, SEQ ID NO: 10; activity neutral (protein, listed as Homo sapiens)
# chain: GSVSSVPTKLEVVAATPTSLLISWDAFGHQYEPVYYYRITYGETGGNSPVQEFTVPGYYSTATISGLKPGVDYTITVYAWYVDGSYSSPISINYRT
# B8: sGFP-Mb6: fusion polypeptide of supercharged GFP and activity-neutral monobody Mb6 (protein)
# chain: B7 chain
# modifications: left off: large carriers
# B9: Mb51: monobody binding allosteric site of Aurora A kinase, SEQ ID NO: 2; inhibitor (protein, listed as Homo sapiens)
# chain: GSVSSVPTKLEVVAATPTSLLISWDAKPMSYEPVYYYRITYGETGGNSPVQEFTVPGYYSTATISGLKPGVDYTITVYADSMSSYYYSPISINYRT
# What was measured:
# [1] = tested on: dephosphorylated Aurora A kinase-TPX2 chimera; experiment: ITC binding to dephosphorylated Aurora A kinase-TPX2 chimera; parameters: species or system human; conditions: PIF pocket occupied by TPX2; relative to Aurora A kinase alone
# Experimental: (§1) Titrations were carried out using Nano ITC isothermal titration calorimeter (TA Instruments) and analyzed via the NanoAnalyze software using the independent fit model. Injectant was added in 1 μl volume, every 180 s, with a constant stirring speed at 350 rpm and at 25° C. Prior to ITC titration, both protein and TPX2 or monobody were dialyzed/resuspended in ITC buffer (20 mM TrisHCl, 200 mM NaCl, 3% (vol/vol) glycerol, 1 mM TCEP, pH 7.50).
# [2] = molecular target: T1, dephosphorylated Aurora A kinase; experiment: Isothermal titration calorimetry (ITC) binding to dephosphorylated Aurora A kinase; conditions: for binding affinity of monobody to dephosphorylated Aurora A kinase / binding affinity of sGFP-monobody fusion to Aurora A kinase compared with the monobody: ITC; for binding affinity of monobody to dephosphorylated Aurora A kinase: FIG. 8; for change of binding affinity of monobody to dephosphorylated Aurora A kinase: Aurora A pre-saturated with danusertib, FIGS. 11A-11B; for binding affinity of sGFP-monobody fusion to Aurora A kinase compared with the monobody: FIGS. 17B, 18D
# Experimental: as §1
# [3] = molecular target: T2, Aurora A kinase; experiment: In vitro kinase assay (HPLC-based / ATP/NADH-coupled) of peptide substrate phosphorylation; format: biochemical; conditions: for effect of monobody on Aurora A kinase activity: Lats2 peptide substrate, FIG. 9
# Experimental: Aurora A, either phosphorylated/dephosphorylated wild type or mutant protein, was mixed with either AP ([…]) (SEQ ID NO: 5), Kemptide (LRRASLG) (SEQ ID NO: 6), or Lats2 ([…]) (SEQ ID NO: 7), in the absence or presence of 50 μM TPX2 in kinase buffer (20 mM TrisHCl, 200 mM NaCl, 3% [vol/vol] glycerol, 20 mM MgCl2, 1 mM TCEP, pH 7.50). These substrates comprise the consensus sequence for Aurora A ([R/K/N]—R—X—[S/T]-B where B is any hydrophobic residue with the exception of Pro) (Ferrari et al., 2005, Biochem. J., 390(Pt 1):293-302; Ohashi et al., 2006, Oncogene, 25:7691-7702; Sardon et al., 2010, EMBO Reports, 11:977-984). Peptides were ordered through Genscript. For HPLC-based activity assays the following protocol was used. The reaction was initiated with the addition of 5 mM ATP. Then 5 μl time points were collected, resuspended in 10 μl 6% (vol/vol) trichloroacetic acid (in water) to quench the reaction, and neutralized with 50 μl 100 mM KH2PO4, pH 8.0 to provide the appropriate pH for nucleotide separation. The mixture was then passed through a 0.22 μm SpinX column to remove any protein precipitation. Reverse phase-high performance liquid chromatography (RP-HPLC) and an ACE 5 C18-AR, 100 Å pore size column, were used to separate nucleotides as well as peptides. For nucleotide runs, 2 μl of the aforementioned mixture was sufficient for analysis, whereas for the peptide runs the optimal injection volume was 20 μl. Nucleotide runs were routinely performed to ensure no unproductive hydrolysis was occurring during the experiment. An isocratic elution run in 100 mM KH2PO4, pH 6.0 was performed for this purpose. For the peptide runs, a gradient of 0-30% of elution buffer lasting 10 min at 0.4 mL/min was sufficient to separate phosphorylated from non-phosphorylated species. The running buffer was 0.1% TFA (vol/vol) in water, while the elution buffer was 100% acetonitrile. Lastly, to ensure full saturation of Aurora A by TPX2 and test these proteins were well behaved, a dose-dependence curve of the effect of TPX2 on Aurora A was obtained.
# For ATP/NADH-coupled assay-based reaction, the following protocol was used. Phosphorylation of different concentrations of Lats2 peptide was monitored using the ATP/NADH coupled assay in a 96-well plate format. Reactions were carried in the presence of 1 μM dephosphorylated or 0.05 μM phosphorylated Aurora and 5 mM ATP in assay buffer (20 mM TrisHCl, 200 mM NaCl, 20 mM MgCl2, 10% (v/v) glycerol, 1 mM TCEP, pH 7.50) at 25° C.
# [4] = tested on: Aurora A kinase in HEK293 cells; experiment: Immunofluorescence co-localization with Aurora A kinase in HEK293 cells; format: cell-based, human; conditions: 7 hours after delivery, FIG. 17F
# Excerpt: (§2) FIGS. 17A-17F present a set of plots, images and graphs showing data gathered using cultured HEK293 cells. In FIGS. 17A-17F, alternative names of the monobodies described herein are used. […] The error bars represent the standard error for the estimate of Kd and are a measure of the goodness of fit of the data. […] As observed in FIG. 17D, sGFP-Mb60's optimal cell delivery occurs after 7 hrs of exposure. FIG. 17E presents a bar graph of luminescence (mean±SEM, n=4 measurements/dataset) as a measure of HEK293 viability after cells were treated for 7 hours under the conditions indicated below the x-axis. Asterisks indicate significance levels of between-conditions t-test comparisons of the different conditions with liposome-treated control; […]; **=p≤0.01; ***=p≤0.001. […] Cells were quadruple stained to visualize DNA/sGFP(−Mbs)/Aurora A kinase/TPX2. […] In the images, DNA stained blue; GFP stained green; Aurora A kinase stained red; and […].
# [5] = tested on: HEK293 cells; experiment: HEK293 viability (luminescence) after 7 hours of treatment; format: cell-based, human; conditions: various monobody concentrations, FIG. 17E
# Excerpt: as §2
Molecule,Activity of Monobody on Aurora A kinase [3],effect of monobody on Aurora A kinase activity [3],binding affinity of monobody to dephosphorylated Aurora A kinase [2],co-localization with Aurora A kinase [4],cell death / viability of HEK293 cells [5],further results
"CO[C@@H](C(=O)N1Cc2[nH]nc(NC(=O)c3ccc(N4CCN(C)CC4)cc3)c2C1)c1ccccc1 [danusertib, reference compound]",,,,,,"binding of danusertib to Aurora A kinase chimera weaker than binding to Aurora A kinase [1]: about 4 times; weakening of binding affinity of danusertib ([2]; Aurora A pre-saturated with activating monobody Mb54 (aka Mb1), FIG. 10C): 19 fold; tightening of binding affinity of danusertib ([2]; Aurora A pre-saturated with inhibiting monobody Mb60 (aka Mb2), FIG. 10C): 4.7 fold; binding of danusertib to Aurora A tighter in the presence of PS48 ([2]; saturating levels of PS48 vs none): about 2 times"
B1,inhibitor,strongly inhibit,low μM levels,,,
B2,inhibitor,strongly inhibit,low nanomolar affinities,,,
B3,inhibitor,inhibitor; also recorded: inhibited; also recorded: strong inhibition,low μM levels,,,change of binding affinity of monobody to dephosphorylated Aurora A kinase [2]: tightened
B4,,,,strong co-localization,statistically significant cell death,inhibition of Aurora A kinase activity by sGFP fusion compared with the monobody ([3]; FIG. 17C): same extent as Mb60; binding affinity of sGFP-monobody fusion to Aurora A kinase compared with the monobody [2]: comparable; also recorded: closely mimicked the binding
B5,activator,strongest activator; also recorded: activate; also recorded: activation,low nanomolar affinities,,,change of binding affinity of monobody to dephosphorylated Aurora A kinase [2]: weakened
B6,,,,strong co-localization,did not cause cell death,binding affinity of sGFP-monobody fusion to Aurora A kinase compared with the monobody [2]: closely mimicked the binding
B7,neutral,weakest regulator; also recorded: did not significantly modulate; also recorded: neutral activity,low nM affinity; also recorded: low nanomolar affinities,,,
B8,,,,strong co-localization,statistically significant cell death,
B9,inhibitor,strongly inhibit,low nanomolar affinities,,,
